Article PMC3576881

Target: TβR-II/TGF-β3 binary complex (UniProt P37173)
Experiment: SPR

TβR-I 7–91 (domain or fragment)
Kd: 310 nM
